The source of these data is article PMC4722173, “Identification of the Elusive Pyruvate Reductase of Chlamydomonas reinhardtii Chloroplasts” (Plant and Cell Physiology, 2015).

The target in series [1] is T1, His-tagged Cr-LDH1 (Chlamydomonas reinhardtii, UniProt B0LUZ5).
T1 construct: residues 45-421, putative 44-residue chloroplast transit peptide removed, C-terminal His tag kept, codon-optimized synthetic gene, pET28b, E. coli KRX; 40 kDa, tetramer (about 200 kDa)
T1 sequence (B0LUZ5 45-421): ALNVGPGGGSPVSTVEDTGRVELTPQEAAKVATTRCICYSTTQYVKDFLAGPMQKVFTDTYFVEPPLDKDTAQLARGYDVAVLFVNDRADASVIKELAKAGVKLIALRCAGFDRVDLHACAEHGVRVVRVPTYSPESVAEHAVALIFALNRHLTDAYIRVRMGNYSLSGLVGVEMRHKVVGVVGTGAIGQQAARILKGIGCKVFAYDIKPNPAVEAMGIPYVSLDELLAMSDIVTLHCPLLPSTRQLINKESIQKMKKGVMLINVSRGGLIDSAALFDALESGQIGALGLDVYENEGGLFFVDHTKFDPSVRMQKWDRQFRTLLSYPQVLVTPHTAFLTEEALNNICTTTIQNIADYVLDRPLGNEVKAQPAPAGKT
The series is described as follows: X-ray crystallography, […] Å. It is filed as binding. The settings on record: 300 µM NAD+ in protein solution before crystallization; active site of each monomer, near H378, R311, E340.

Series [2] has as its target T1, His-tagged Cr-LDH1. Briefly: spectrophotometric NADH oxidation at […] nm. It is filed as biochemical. The settings on record: 300 µM NADH with pyruvate; pH 7.5; 25 °C; mere turnover.
For series [3], the target named is PFL1 (pyruvate formate lyase), endogenous, in Chlamydomonas reinhardtii whole-cell extract (Chlamydomonas reinhardtii (endogenous in whole-cell extract)). Briefly: native gel or EMSA; 1D BN-PAGE of C. reinhardtii whole-cell extracts, immunoblot with Cr-LDH1 or PFL1 antibodies.
Series [4] addresses His-tagged recombinant Cr-LDH1 (NAD+-dependent D-lactate dehydrogenase encoded by Cre07.g324550), residues 45-421 (Chlamydomonas reinhardtii). Briefly: crystal structure; sitting drop, approximately 14.5 mg/ml protein with 300 µM NAD+, 20% PEG 3350, 200 mM potassium nitrate; 2.46 Å; tetramer as predicted by PISA.
Substrate in series [5]: C[C@@H](O)C(=O)O
The series is described as follows: purified protein. Conditions: 300 µM NAD+, 25 mM sodium phosphate, 250 mM NaCl, pH 7.5, 25 °C.

Substrate in series [6]: CC(=O)C(=O)O
The series is described as follows: purified protein. It is filed as biochemical, Chlamydomonas reinhardtii. Conditions: 300 µM NADH, 25 mM sodium phosphate, 250 mM NaCl, pH 7.5, 25 °C, mean ± SD of two protein preparations.

Substrate in series [7]: O=CC(=O)O
The series is described as follows: purified protein. The format is biochemical, Chlamydomonas reinhardtii. Conditions: 300 µM NADH, 25 mM sodium phosphate, 250 mM NaCl, pH 7.5, 25 °C.

As for `NC(=O)c1ccc[n+]([C@@H]2O[C@H](COP(=O)(O)OP(=O)(O)OC[C@H]3O[C@@H](n4cnc5c(N)ncnc54)[C@H](O)[C@@H]3O)[C@@H](O)[C@H]2O)c1` [NAD^+], on His-tagged Cr-LDH1 [1], the “X-ray crystallography, 2.46 Å” value is “NAD^+ molecules added during crystallization were observed in the active site of each monomer”.
With `NC(=O)C1=CN([C@@H]2O[C@H](COP(=O)(O)OP(=O)(O)OC[C@H]3O[C@@H](n4cnc5c(N)ncnc54)[C@H](O)[C@@H]3O)[C@@H](O)[C@H]2O)C=CC1` [NADH], on His-tagged Cr-LDH1 [2], the “spectrophotometric NADH oxidation at 340 nm” value is “preference for the reduction of pyruvate to D-lactate and a specificity for NADH”.
As a reminder, the stoichiometry N is the number of molecules, sites or subunits per partner or assembly. In series [3], “PFL1 (pyruvate formate lyase), endogenous, in Chlamydomonas reinhardtii whole-cell extract (enzyme)” displayed a stoichiometry N of 2.
Consider “His-tagged recombinant Cr-LDH1 (NAD+-dependent D-lactate dehydrogenase encoded by Cre07.g324550), residues 45-421 (enzyme)”, for which the stoichiometry N in series [4] is 4.

B1: His-tagged Cr-LDH1 (Chlamydomonas reinhardtii) (protein)
chain: T1 sequence (B0LUZ5 45-421)
notes: residues 45-421, putative 44-residue chloroplast transit peptide removed, C-terminal His tag kept, codon-optimized synthetic gene, pET28b, E. coli KRX; 40 kDa, tetramer (about 200 kDa)
The term Km denotes the concentration of substrate that gives half-maximal velocity. What is called kcat is the maximal rate divided by the concentration of active sites. A word on the kcat/Km: it is the second-order rate constant that governs catalysis at low substrate concentration. Turning to B1, the Km was found to be 70 mM in the series “purified protein [5]”, 1.46 ± 0.01 mM in “purified protein [6]” and 62 mM in “purified protein [7]”. Besides, the kcat worked out at 10 s⁻¹ in “purified protein [5]”, 370 ± 2 s⁻¹ in “purified protein [6]” and 60 s⁻¹ in “purified protein [7]”. Further, the kcat/Km in the series “purified protein [5]” stood at 150 M⁻¹ s⁻¹; in “purified protein [6]”, 255000 ± 7000 M⁻¹ s⁻¹; in “purified protein [7]”, 1000 M⁻¹ s⁻¹.
